Experimental data reported in paper PMC10765524.

Molecular target: PP2A:B55 holoenzyme (PP2Aa, B55, PP2Ac) (UniProt P30153)
Sequence (P30153 9-589, chain 1 of 3): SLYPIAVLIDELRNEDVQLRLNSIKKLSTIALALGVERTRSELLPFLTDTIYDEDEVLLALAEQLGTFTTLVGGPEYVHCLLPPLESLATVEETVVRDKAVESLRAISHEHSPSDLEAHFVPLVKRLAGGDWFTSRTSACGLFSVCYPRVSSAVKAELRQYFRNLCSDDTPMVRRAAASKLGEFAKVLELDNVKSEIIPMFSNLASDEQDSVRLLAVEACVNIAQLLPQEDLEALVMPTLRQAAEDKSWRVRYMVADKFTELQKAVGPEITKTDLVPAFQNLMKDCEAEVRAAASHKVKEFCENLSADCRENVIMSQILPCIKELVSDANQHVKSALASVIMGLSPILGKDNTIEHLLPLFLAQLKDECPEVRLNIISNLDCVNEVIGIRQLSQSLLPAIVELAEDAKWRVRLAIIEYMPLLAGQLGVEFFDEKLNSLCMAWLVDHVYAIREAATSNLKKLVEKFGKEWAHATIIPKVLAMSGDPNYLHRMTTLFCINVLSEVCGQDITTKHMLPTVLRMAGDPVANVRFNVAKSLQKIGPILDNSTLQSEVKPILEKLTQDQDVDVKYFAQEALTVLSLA
Sequence (P63151 whole entry, chain 2 of 3, further chain): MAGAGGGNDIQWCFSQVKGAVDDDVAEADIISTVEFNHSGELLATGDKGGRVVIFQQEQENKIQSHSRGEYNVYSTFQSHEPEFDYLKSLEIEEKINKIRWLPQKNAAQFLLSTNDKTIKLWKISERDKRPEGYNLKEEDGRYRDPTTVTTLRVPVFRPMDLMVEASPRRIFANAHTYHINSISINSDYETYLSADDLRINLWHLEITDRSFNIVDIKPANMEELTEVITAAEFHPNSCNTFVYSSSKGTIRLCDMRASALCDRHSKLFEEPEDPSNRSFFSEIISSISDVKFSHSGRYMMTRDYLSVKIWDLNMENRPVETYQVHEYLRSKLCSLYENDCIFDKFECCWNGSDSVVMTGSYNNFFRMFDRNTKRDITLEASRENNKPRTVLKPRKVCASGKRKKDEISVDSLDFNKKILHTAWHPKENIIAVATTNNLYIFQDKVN
Sequence (P67775 whole entry, chain 3 of 3, further chain): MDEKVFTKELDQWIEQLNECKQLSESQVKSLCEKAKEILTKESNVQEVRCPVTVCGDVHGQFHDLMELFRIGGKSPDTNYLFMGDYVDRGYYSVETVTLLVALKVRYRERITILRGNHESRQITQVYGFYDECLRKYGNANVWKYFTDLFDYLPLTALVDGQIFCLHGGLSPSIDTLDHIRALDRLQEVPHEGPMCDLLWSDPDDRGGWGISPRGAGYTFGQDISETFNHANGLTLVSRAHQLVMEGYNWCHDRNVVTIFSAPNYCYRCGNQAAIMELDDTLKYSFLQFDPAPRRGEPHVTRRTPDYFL

inhibition of PP2A:B55 phosphatase activity (DiFMUP), against wild type [fold]	Substance
2	FAM122AID E104A/S120C (domain or fragment)
11	FAM122AID R105L (domain or fragment)
6	FAM122AID V107G (domain or fragment)
